Measurements published in patent publication US20150344570A1 (published 2015).

T1: FcγRIIb (human, UniProt P31994 43-217)
T1 construct: extracellular domain; Soluble extracellular domain with C-terminal His tag, used as analyte in Biacore; also called FcgRIIb; 2b; not shown: His tag attached to the C terminus
T1 sequence (looked up): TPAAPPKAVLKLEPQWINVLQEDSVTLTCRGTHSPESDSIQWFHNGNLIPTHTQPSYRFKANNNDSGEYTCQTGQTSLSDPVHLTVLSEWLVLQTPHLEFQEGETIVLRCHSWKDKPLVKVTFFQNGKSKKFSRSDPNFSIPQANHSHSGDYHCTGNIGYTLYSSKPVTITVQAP


Experiments:
FcγRIIb = target: T1, FcγRIIb; test: SPR (Biacore), antibody captured, FcγR as analyte; relative to GpH7-A5/GpH7-B3/GpL16-k0 = 100
FcγRIa [1] = target: T2, FcγRIa (human, UniProt P12314 16-292); test: as above
T2 construct: extracellular domain; Soluble extracellular domain with C-terminal His tag, used as analyte in Biacore; also called FcgRI; 1a; not shown: His tag attached to the C terminus
T2 sequence (P12314 16-292): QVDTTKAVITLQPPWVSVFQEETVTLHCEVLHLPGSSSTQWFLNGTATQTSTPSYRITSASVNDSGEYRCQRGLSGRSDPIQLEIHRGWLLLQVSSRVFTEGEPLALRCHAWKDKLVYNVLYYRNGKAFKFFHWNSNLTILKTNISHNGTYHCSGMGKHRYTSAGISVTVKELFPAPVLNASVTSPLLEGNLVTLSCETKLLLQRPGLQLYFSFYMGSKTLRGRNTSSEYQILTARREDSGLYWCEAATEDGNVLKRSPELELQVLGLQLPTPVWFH

FcγRIa [2] = target: T2, FcγRIa; test: SPR (Biacore); He/Con_1a divided by He/Con_2b (binding to FcγRIa against binding to FcγRIIb)
Protocol: The heterodimerized antibodies He Abs in which one of the H chains was introduced with an alteration were assayed for their binding activities to each activating FcγR and inhibitory FcγR according to the method described in Example 4. […] The activating FcγRs in FIGS. 26, 27, 28, and 29 are FcγRIa, FcγRIIa (R), FcγRIIa (H), and FcγRIIIa, respectively.
Analysis of interaction between objective antibody and the FcγR was carried out using Biacore T100 (GE Healthcare). HBS-EP+ (GE Healthcare) was used as the running buffer, and the measurement temperature was set to 25° C. Chips produced by immobilizing the antigen peptide by the amine coupling method to a Series S Sencor Chip CM5 (GE Healthcare), or alternatively, chips produced by allowing preliminarily biotinylated antigen peptides to interact with and immobilize onto a Series S Sensor Chip SA (certified) (GE Healthcare) were used. Antibodies of interest were captured onto an antigen peptide-immobilized chip, and allowed to interact to each FcγR diluted with running buffer. To regenerate and repeatedly use the chip, the antibodies captured on the chip were washed off by reacting 10 mM glycine-HCl, pH 1.5.

Row | He/Con_2b (FcγRIIb) | He/Con_1a (FcγRIa [1]) | He_1a/2b (Ia/IIb) (FcγRIa [2]) | Binder
1 | 130 % of control (=100) | 81.6 % of control (=100) | 0.63 ratio | GpH7-A5/GpH7-B3 variant G237_06M/GpL16-k0 (antibody, human IgG1, kappa, Heterodimerized anti-glypican-3 IgG1; alteration in the GpH7-B3 chain only; also called He Ab) heavy 1: not shown heavy 2: not shown light: DIVMTQSPLSLPVTPGEPASISCQASESLVHSNRNTYLHWYLQKPGQSPQLLIYKVSNRFSGVPDRFSGSGSGTDFTLKISRVEAEDVGVYYCSQNTHVPPTFGQGTKVEIERTVAAPSVFIFPPSDEQLKSGTASVVCLLNNFYPREAKVQWKVDNALQSGNSQESVTEQDSKDSTYSLSSTLTLSKADYEKHKVYACEVTHQGLSSPVTKSFNRGEC
2 | 312 % of control (=100) | 101 % of control (=100) | 0.32 ratio | GpH7-A5/GpH7-B3 variant P238_04F/GpL16-k0 (antibody, human IgG1, kappa, Heterodimerized anti-glypican-3 IgG1; alteration in the GpH7-B3 chain only; also called He Ab) heavy 1: not shown heavy 2: not shown light: DIVMTQSPLSLPVTPGEPASISCQASESLVHSNRNTYLHWYLQKPGQSPQLLIYKVSNRFSGVPDRFSGSGSGTDFTLKISRVEAEDVGVYYCSQNTHVPPTFGQGTKVEIERTVAAPSVFIFPPSDEQLKSGTASVVCLLNNFYPREAKVQWKVDNALQSGNSQESVTEQDSKDSTYSLSSTLTLSKADYEKHKVYACEVTHQGLSSPVTKSFNRGEC
3 | 193 % of control (=100) | 78.4 % of control (=100) | 0.41 ratio | GpH7-A5/GpH7-B3 variant G237_20W/GpL16-k0 (antibody, human IgG1, kappa, Heterodimerized anti-glypican-3 IgG1; alteration in the GpH7-B3 chain only; also called He Ab) heavy 1: not shown heavy 2: not shown light: DIVMTQSPLSLPVTPGEPASISCQASESLVHSNRNTYLHWYLQKPGQSPQLLIYKVSNRFSGVPDRFSGSGSGTDFTLKISRVEAEDVGVYYCSQNTHVPPTFGQGTKVEIERTVAAPSVFIFPPSDEQLKSGTASVVCLLNNFYPREAKVQWKVDNALQSGNSQESVTEQDSKDSTYSLSSTLTLSKADYEKHKVYACEVTHQGLSSPVTKSFNRGEC
4 | 148 % of control (=100) | 79.6 % of control (=100) | 0.54 ratio | GpH7-A5/GpH7-B3 variant G237_08L/GpL16-k0 (antibody, human IgG1, kappa, Heterodimerized anti-glypican-3 IgG1; alteration in the GpH7-B3 chain only; also called He Ab) heavy 1: not shown heavy 2: not shown light: DIVMTQSPLSLPVTPGEPASISCQASESLVHSNRNTYLHWYLQKPGQSPQLLIYKVSNRFSGVPDRFSGSGSGTDFTLKISRVEAEDVGVYYCSQNTHVPPTFGQGTKVEIERTVAAPSVFIFPPSDEQLKSGTASVVCLLNNFYPREAKVQWKVDNALQSGNSQESVTEQDSKDSTYSLSSTLTLSKADYEKHKVYACEVTHQGLSSPVTKSFNRGEC
5 | 204 % of control (=100) | 101 % of control (=100) | 0.49 ratio | GpH7-A5/GpH7-B3 variant P238_08L/GpL16-k0 (antibody, human IgG1, kappa, Heterodimerized anti-glypican-3 IgG1; alteration in the GpH7-B3 chain only; also called He Ab) heavy 1: not shown heavy 2: not shown light: DIVMTQSPLSLPVTPGEPASISCQASESLVHSNRNTYLHWYLQKPGQSPQLLIYKVSNRFSGVPDRFSGSGSGTDFTLKISRVEAEDVGVYYCSQNTHVPPTFGQGTKVEIERTVAAPSVFIFPPSDEQLKSGTASVVCLLNNFYPREAKVQWKVDNALQSGNSQESVTEQDSKDSTYSLSSTLTLSKADYEKHKVYACEVTHQGLSSPVTKSFNRGEC
6 | 223 % of control (=100) | 84 % of control (=100) | 0.38 ratio | GpH7-A5/GpH7-B3 variant G237_09D/GpL16-k0 (antibody, human IgG1, kappa, Heterodimerized anti-glypican-3 IgG1; alteration in the GpH7-B3 chain only; also called He Ab) heavy 1: not shown heavy 2: not shown light: DIVMTQSPLSLPVTPGEPASISCQASESLVHSNRNTYLHWYLQKPGQSPQLLIYKVSNRFSGVPDRFSGSGSGTDFTLKISRVEAEDVGVYYCSQNTHVPPTFGQGTKVEIERTVAAPSVFIFPPSDEQLKSGTASVVCLLNNFYPREAKVQWKVDNALQSGNSQESVTEQDSKDSTYSLSSTLTLSKADYEKHKVYACEVTHQGLSSPVTKSFNRGEC
7 | 174 % of control (=100) | 102 % of control (=100) | 0.59 ratio | GpH7-A5/GpH7-B3 variant P238_06M/GpL16-k0 (antibody, human IgG1, kappa, Heterodimerized anti-glypican-3 IgG1; alteration in the GpH7-B3 chain only; also called He Ab) heavy 1: not shown heavy 2: not shown light: DIVMTQSPLSLPVTPGEPASISCQASESLVHSNRNTYLHWYLQKPGQSPQLLIYKVSNRFSGVPDRFSGSGSGTDFTLKISRVEAEDVGVYYCSQNTHVPPTFGQGTKVEIERTVAAPSVFIFPPSDEQLKSGTASVVCLLNNFYPREAKVQWKVDNALQSGNSQESVTEQDSKDSTYSLSSTLTLSKADYEKHKVYACEVTHQGLSSPVTKSFNRGEC
8 | 147 % of control (=100) | 92.8 % of control (=100) | 0.63 ratio | GpH7-A5/GpH7-B3 variant L235_20W/GpL16-k0 (antibody, human IgG1, kappa, Heterodimerized anti-glypican-3 IgG1; alteration in the GpH7-B3 chain only; also called He Ab) heavy 1: not shown heavy 2: not shown light: DIVMTQSPLSLPVTPGEPASISCQASESLVHSNRNTYLHWYLQKPGQSPQLLIYKVSNRFSGVPDRFSGSGSGTDFTLKISRVEAEDVGVYYCSQNTHVPPTFGQGTKVEIERTVAAPSVFIFPPSDEQLKSGTASVVCLLNNFYPREAKVQWKVDNALQSGNSQESVTEQDSKDSTYSLSSTLTLSKADYEKHKVYACEVTHQGLSSPVTKSFNRGEC
